# Experimental data from IntAct's records for PubMed 16762039.
# B1: Hypermethylated in cancer 1 protein (Homo sapiens), Q14526 (parent)
# chain: MTFPEADILLKSGECAGQTMLDTMEAPGHSRQLLLQLNNQRTKGFLCDVIIVVQNALFRAHKNVLAASSAYLKSLVVHDNLLNLDHDMVSPAVFRLVLDFIYTGRLADGAEAAAAAAVAPGAEPSLGAVLAAASYLQIPDLVALCKKRLKRHGKYCHLRGGGGGGGGYAPYGRPGRGLRAATPVIQACYPSPVGPPPPPAAEPPSGPEAAVNTHCAELYASGPGPAAALCASERRCSPLCGLDLSKKSPPGSAAPERPLAERELPPRPDSPPSAGPAAYKEPPLALPSLPPLPFQKLEEAAPPSDPFRGGSGSPGPEPPGRPDGPSLLYRWMKHEPGLGSYGDELGRERGSPSERCEERGGDAAVSPGGPPLGLAPPPRYPGSLDGPGAGGDGDDYKSSSEETGSSEDPSPPGGHLEGYPCPHLAYGEPESFGDNLYVCIPCGKGFPSSEQLNAHVEAHVEEEEALYGRAEAAEVAAGAAGLGPPFGGGGDKVAGAPGGLGELLRPYRCASCDKSYKDPATLRQHEKTHWLTRPYPCTICGKKFTQRGTMTRHMRSHLGLKPFACDACGMRFTRQYRLTEHMRIHSGEKPYECQVCGGKFAQQRNLISHMKMHAVGGAAGAAGALAGLGGLPGVPGPDGKGKLDFPEGVFAVARLTAEQLSLKQQDKAAAAELLAQTTHFLHDPKVALESLYPLAKFTAELGLSPDKAAEVLSQGAHLAAGPDGRTIDRFSPT
# Variants of: B1
# Details: with ctbp2_mouse Ctbp2, P56546
# Chain of ctbp2_mouse Ctbp2, P56546 (P56546 whole entry): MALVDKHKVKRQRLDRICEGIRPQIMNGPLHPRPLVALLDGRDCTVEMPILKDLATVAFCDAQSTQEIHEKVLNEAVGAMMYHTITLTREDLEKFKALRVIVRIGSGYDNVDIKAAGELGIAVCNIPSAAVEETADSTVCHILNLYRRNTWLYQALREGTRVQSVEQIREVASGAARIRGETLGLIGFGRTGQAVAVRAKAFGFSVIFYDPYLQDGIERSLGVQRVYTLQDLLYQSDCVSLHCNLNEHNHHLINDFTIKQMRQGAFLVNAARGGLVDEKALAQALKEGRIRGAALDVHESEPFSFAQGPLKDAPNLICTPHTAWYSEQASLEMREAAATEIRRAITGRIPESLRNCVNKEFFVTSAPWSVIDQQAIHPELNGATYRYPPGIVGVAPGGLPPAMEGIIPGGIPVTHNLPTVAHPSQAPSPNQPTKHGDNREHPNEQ
row,Variant,effect of a mutation on the interaction
1,L244A,disrupting interaction

# Variants of: B1
# Details: with ctbp1_mouse Ctbp1, O88712
row,Variant,effect of a mutation on the interaction
1,L244A,disrupting interaction
